Test results: paper PMC4952014

Molecular target: immobilized trimeric proteins
Test: SPR; reverse set-up: JR-FL gp120 (900 RU), JR-FL FD gp145 (1400 RU), SF162 FD gp145 (900 RU) or Soc-V1V2JR-FL amine-coupled to CM5 chips; Siglec-1 injected in 10 mM HEPES, 150 mM NaCl pH 7.4, 30 µl/min; some runs with 50 nM Siglec-1 and lactose, 6'-sialyllactose or sialic acid

For “Siglec-1 (recombinant protein used for SPR) (from UniProt Q9BZZ2 20-1709) (receptor)”, the fold less affinity than trimeric proteins on immobilized Siglec-1 was 10 to 20 fold.
